Measured values reported in patent US20250382598A1.
“And” between values parts separate entries of the source, which are not always exact repeats. Equal values may be shown once.

Key:
[1] = target: LbCas12a-Trex2 fusion (C-terminal Trex2; construct 25962) (Simian virus 40; Lachnospiraceae bacterium ND2006; Mus musculus); assay: cell-based or functional assay
[2] = target: LbCas12a-scTrex2 fusion (single-chained Trex2 homodimer at the C-terminus; construct 27433) (Simian virus 40; Lachnospiraceae bacterium ND2006; Mus musculus); assay: cell-based or functional assay

Row | Substance | 1 kb Inversion (targeted fragment inversion in transgenic maize plants) [1] | 1 kb Inversion (targeted fragment inversion in transgenic maize plants) [2] | targeted inversion frequency among the 13 plants in which both targets were edited [2]
1 | LbCas12a-Trex2 fusion (C-terminal Trex2; construct 25962) (enzyme) | 28 plants and 18.4% |  | 
2 | LbCas12a-scTrex2 fusion (single-chained Trex2 homodimer at the C-terminus; construct 27433) (enzyme) |  | 1 plants and 2% | 7.7%
